Results: PMC9843055, “Karyopherin α deficiency contributes to human preimplantation embryo arrest” (The Journal of Clinical Investigation, 2023)

Biological target: T1, human KPNA7 (karyopherin subunit α7), WT, purified, GST cleaved (human, UniProt A9QM74 1-516)
T1 construct: karyopherin subunit α7 (importin α8), human; also called hKPNA7; importin α8; source: E. coli BL21 (DE3) plysS, purified (glutathione Sepharose, GST tag cut with PreScission protease)
Experiment: pull-down; GST-SV40TNLS-GFP or GST-RSL1D1-GFP held on GST beads (4°C, 1 h, transport buffer with 0.1% Triton X-100), then cleaved WT or mutant KPNA7 at 4°C for 2 h; Western blotting
Conditions: both partners purified

T1 sequence (A9QM74 whole entry): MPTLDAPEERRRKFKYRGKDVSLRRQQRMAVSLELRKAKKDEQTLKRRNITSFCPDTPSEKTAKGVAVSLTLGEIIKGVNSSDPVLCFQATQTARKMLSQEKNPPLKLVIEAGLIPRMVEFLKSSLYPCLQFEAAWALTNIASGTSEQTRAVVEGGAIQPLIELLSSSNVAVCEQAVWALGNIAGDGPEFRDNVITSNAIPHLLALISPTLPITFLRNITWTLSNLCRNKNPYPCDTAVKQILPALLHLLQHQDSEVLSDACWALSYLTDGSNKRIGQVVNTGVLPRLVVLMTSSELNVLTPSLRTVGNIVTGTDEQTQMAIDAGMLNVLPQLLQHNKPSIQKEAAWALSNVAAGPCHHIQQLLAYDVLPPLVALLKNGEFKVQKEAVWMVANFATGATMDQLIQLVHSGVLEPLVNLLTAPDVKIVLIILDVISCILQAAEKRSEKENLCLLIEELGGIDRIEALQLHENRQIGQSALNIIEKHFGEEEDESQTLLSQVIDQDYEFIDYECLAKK

B1: GST-SV40TNLS-GFP (other)
chain: PKKKRKV
notes: nuclear localization signal of the SV40 large T antigen (SV40TNLS), between GST and GFP; source: E. coli BL21 (DE3) plysS, purified (glutathione Sepharose); not shown: GST, N-terminal, kept; GFP, C-terminal, kept
binding result: binds
